The text below walks through data of PMC7933101 (Proteins, 2020).

The series “non-reducing PAGE” deals with the molecule itself. The series can be described thus: non-reducing PAGE.
Series [1] deals with the molecule itself. The series can be described thus: PAGE under denaturing, non-reducing conditions.

Values joined by “and” are separate entries in the source; they are usually repeats but may differ in a detail not shown here. Equal values may be shown once.

B1: Granulin-5 (GRN-5) (natural protein, UniProt P28799 364-417, looked up)
chain: VPCDNVSSCPSSDTCCQLTSGEWGCCPIPEAVCCSDHQHCCPQGYTCVAEGQCQ
Turning to B1, the binding result in the series “non-reducing PAGE” is reported as “binds”.

B2: Granulin-3 (GRN-3) (natural protein, UniProt P28799 206-261, looked up)
chain: VMCPDARSRCPDGSTCCELPSGKWGCCPMPNATCCSDHLHCCPQDTVCDLIQSKCL
In the case of B2, the “stoichiometry N” value in series [1] was at most 4; in “non-reducing PAGE” it was 2 and 3.

What is called stoichiometry N is the number of molecules, sites or subunits per partner or assembly.
